The values that follow come from publication doi:10.1101/452920.

Substitutions are numbered along the chain they refer to. Where two headings read alike, the source gives them in different places.

Holding throughout (test): fluorescence anisotropy
The target in data set [1] is T1, MRPP1 (Δ39);MRPP2;MRPP3 (Δ95) (human;human;human, UniProt Q7L0Y3;Q99714;O15091 40-403;1-261;96-583, del1-39||del1-95).
T1 sequence 1: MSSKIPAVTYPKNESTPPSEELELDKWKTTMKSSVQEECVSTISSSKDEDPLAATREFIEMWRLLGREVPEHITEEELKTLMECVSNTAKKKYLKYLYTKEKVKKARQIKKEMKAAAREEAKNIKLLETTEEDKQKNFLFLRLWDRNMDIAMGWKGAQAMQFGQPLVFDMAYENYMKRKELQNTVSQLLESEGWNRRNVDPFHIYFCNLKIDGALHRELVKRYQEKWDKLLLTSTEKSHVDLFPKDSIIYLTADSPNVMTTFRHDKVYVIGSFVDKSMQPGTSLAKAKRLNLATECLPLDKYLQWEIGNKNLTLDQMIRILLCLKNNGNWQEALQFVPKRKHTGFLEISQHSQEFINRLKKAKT
T1 sequence 2: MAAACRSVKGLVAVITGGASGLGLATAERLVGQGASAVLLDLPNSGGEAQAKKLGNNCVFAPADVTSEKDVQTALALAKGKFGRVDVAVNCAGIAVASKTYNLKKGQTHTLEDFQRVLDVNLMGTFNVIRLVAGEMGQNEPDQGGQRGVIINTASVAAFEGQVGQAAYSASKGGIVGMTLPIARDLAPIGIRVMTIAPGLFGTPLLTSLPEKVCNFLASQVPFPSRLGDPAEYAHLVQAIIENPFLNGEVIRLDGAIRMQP
T1 sequence 3: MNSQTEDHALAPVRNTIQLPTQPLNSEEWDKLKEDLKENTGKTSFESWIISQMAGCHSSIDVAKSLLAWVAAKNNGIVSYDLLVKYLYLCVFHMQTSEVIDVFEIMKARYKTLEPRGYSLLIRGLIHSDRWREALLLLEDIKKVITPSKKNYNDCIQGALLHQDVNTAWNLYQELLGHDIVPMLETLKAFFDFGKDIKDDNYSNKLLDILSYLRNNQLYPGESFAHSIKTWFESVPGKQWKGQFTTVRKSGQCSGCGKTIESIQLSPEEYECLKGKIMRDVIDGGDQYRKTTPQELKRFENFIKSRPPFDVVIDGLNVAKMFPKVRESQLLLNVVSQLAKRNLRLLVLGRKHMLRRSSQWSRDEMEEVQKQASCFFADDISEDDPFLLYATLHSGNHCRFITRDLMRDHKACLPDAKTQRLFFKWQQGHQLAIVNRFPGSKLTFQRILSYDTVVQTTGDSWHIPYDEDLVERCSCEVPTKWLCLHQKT

In data set [2] the target is T2, MRPP1 (Δ39);MRPP2 (human;human, UniProt Q7L0Y3;Q99714 40-403;1-261, del1-39|).
T2 sequence 1: T1 sequence 1
T2 sequence 2: T1 sequence 2

In the next data set the target is T3, MRPP3 (Δ95) (human, UniProt O15091 96-583, del1-95).
T3 sequence: T1 sequence 3

Data set [3] concerns the target T1, MRPP1 (Δ39);MRPP2;MRPP3 (Δ95). This is another data set of the same source.
For data set [4], the target named is T2, MRPP1 (Δ39);MRPP2. This is another data set of the same source.

B1: (mt)pre-tRNAVal7:0 (structured_RNA)
RNA: GACGAACCAGAGUGUAGCUUAACACAAAGCACCCAACUUACACUUAGGAGAUUUCAACUUAACUUGACCGCUCUGA
As for B1, the binding result (in data set [1]; with MRPP1 (Δ39);MRPP2 [2]) was “binds” throughout. The Kd (as a rule, the free concentration of one partner at which half of the binding sites on the other are occupied at equilibrium, for simple one-to-one binding) in the data set with MRPP3 (Δ95) was determined as 21.7 ± 2.6 µM.

B2: (mt)pre-tRNAVal/C9 (structured_RNA)
RNA: B1 RNA with A16C
B2: the binding result (in data set [3]; with MRPP1 (Δ39);MRPP2 [4]) was “binds” in each case.
